Test results taken from US20210246218A1 (LYVGEN BIOPHARMA SUZHOU, published 2021).
Several values for one entry are separate records, joined by “and”; a condition that tells them apart may be missing. Identical values can stand only once.

Key:
human CD137 on cells = human CD137 on cells (human, UniProt Q07011 24-255); assay: cell-based or functional assay
human VISTA on CHO cells = target: T1, human VISTA on CHO cells (human, UniProt Q9H7M9 33-311); assay: flow cytometry on CHO cells over-expressing the target
T1 construct: whole, on cells
Description: (§1) The cells were resuspended in ice cold assay buffer at 2*10\hat{ }6/mL and transferred to 96-well V-bottom plate with 100 μL/well. […] The plate was incubated in the dark for 2 hours at 4° C. The cells were washed 3 times by centrifugation at 1000 g for 3 min and resuspended in 100 μL ice cold assay buffer containing goat F(ab′)₂ anti-human IgG-Fc (PE) or PE goat anti-mouse IgG antibody. The plate was incubated in the dark for another 1 hour at 4° C. The cells were washed 2 times by centrifugation at 1000 g for 3 min and resuspended in ice cold assay buffer containing 2% PFA and analyzed on the flow cytometer immediately.

human TIGIT on CHO cells = target: T2, human TIGIT on CHO cells (human, UniProt Q495A1 22-244); assay: as above
T2 construct: whole, on cells
T2 sequence (looked up): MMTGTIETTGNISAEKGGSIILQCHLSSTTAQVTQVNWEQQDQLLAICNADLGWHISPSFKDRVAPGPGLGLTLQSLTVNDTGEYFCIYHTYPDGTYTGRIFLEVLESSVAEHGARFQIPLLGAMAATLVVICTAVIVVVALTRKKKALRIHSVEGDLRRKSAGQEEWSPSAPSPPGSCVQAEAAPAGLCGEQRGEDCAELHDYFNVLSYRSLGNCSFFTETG
Description: as §1

human CD40 on CHO cells = target: T3, human CD40 on CHO cells (human, UniProt P25942 21-277); assay: as above
T3 construct: whole, on cells
T3 sequence (P25942 21-277): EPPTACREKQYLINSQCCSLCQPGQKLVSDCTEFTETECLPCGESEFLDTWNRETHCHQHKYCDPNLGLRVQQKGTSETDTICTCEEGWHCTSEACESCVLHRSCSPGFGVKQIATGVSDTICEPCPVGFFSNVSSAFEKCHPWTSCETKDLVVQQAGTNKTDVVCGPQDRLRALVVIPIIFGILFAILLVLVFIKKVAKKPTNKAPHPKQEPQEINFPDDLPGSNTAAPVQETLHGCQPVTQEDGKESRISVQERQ
Description: as §1

human LAG-3 on CHO cells = target: T4, human LAG-3 on CHO cells (human, UniProt P18627 23-525); assay: as above
T4 construct: whole, on cells
T4 sequence (looked up): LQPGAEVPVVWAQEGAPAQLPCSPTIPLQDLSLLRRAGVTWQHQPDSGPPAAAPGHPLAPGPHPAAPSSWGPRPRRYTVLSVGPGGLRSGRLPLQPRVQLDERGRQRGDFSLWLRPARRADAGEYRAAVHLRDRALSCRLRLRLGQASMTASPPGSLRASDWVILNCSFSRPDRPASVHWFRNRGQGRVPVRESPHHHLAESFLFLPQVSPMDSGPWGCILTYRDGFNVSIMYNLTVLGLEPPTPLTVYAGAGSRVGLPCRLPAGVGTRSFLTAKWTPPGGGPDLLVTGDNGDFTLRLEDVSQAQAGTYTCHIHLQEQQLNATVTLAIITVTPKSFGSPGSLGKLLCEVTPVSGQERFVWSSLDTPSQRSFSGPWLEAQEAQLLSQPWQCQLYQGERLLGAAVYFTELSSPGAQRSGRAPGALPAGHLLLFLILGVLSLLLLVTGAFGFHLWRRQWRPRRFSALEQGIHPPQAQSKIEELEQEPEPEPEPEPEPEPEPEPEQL
Description: as §1

mouse CD137 on CHO cells = target: T5, mouse CD137 on CHO cells (mouse, UniProt P20334 24-256); assay: as above
T5 construct: whole, on cells; also called murine cellular CD137
T5 sequence (P20334 24-256): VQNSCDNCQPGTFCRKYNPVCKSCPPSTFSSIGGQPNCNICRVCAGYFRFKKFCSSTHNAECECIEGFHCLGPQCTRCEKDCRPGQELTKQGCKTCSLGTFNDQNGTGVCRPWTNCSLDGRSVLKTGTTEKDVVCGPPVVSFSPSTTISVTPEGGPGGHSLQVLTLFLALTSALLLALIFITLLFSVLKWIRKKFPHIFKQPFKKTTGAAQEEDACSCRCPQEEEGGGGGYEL
Description: as §1

human LTBR on CHO cells = target: T6, human LTBR on CHO cells (human, UniProt P36941 31-435); assay: as above
T6 construct: whole, on cells
T6 sequence (P36941 31-435): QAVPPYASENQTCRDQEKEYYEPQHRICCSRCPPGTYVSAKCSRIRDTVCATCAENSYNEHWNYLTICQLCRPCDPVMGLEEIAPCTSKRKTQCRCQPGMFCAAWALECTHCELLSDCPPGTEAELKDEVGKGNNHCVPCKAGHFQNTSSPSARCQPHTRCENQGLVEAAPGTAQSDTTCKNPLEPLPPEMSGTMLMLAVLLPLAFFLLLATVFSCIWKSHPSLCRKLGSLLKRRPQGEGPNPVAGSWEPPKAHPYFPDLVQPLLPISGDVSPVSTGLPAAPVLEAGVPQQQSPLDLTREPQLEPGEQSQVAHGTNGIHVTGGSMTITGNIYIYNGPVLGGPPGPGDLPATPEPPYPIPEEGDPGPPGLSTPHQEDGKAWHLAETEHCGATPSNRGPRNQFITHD
Description: as §1

human BTLA on CHO cells = target: T7, human BTLA on CHO cells (human, UniProt Q7Z6A9 31-289); assay: as above
T7 construct: whole, on cells
Description: as §1

human CD19 on CHO cells = target: T8, human CD19 on CHO cells (human, UniProt P15391 20-556); assay: as above
T8 construct: whole, on cells
T8 sequence (looked up): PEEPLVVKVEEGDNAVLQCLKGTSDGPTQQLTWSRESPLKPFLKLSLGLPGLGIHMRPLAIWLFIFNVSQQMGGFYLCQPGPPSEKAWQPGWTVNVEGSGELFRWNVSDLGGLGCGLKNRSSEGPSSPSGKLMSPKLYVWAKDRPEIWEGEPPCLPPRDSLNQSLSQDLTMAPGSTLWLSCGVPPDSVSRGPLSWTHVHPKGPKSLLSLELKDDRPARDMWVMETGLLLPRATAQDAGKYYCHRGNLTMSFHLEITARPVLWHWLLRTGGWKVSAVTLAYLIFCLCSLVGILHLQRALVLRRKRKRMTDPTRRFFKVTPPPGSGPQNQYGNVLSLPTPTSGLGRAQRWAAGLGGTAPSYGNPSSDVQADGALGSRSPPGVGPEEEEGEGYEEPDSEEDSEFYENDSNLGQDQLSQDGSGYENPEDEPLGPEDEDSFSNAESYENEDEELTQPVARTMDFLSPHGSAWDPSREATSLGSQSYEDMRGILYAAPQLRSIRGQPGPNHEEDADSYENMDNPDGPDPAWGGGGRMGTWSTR
Description: as §1

human PD-L1 on CHO cells = target: T9, human PD-L1 on CHO cells (human, UniProt Q9NZQ7 19-290); assay: as above
T9 construct: whole, on cells
T9 sequence (Q9NZQ7 19-290): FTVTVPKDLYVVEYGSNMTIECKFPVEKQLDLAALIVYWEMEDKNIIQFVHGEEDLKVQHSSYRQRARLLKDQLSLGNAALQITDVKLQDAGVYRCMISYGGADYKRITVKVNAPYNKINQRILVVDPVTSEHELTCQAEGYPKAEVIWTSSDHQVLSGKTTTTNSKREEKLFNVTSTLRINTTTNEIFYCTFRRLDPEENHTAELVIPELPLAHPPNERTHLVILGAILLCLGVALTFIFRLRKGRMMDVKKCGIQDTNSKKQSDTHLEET
Description: as §1

human B7-H4 on CHO cells = target: T10, human B7-H4 on CHO cells (human, UniProt Q7Z7D3 25-282); assay: as above
T10 construct: whole, on cells
T10 sequence (looked up): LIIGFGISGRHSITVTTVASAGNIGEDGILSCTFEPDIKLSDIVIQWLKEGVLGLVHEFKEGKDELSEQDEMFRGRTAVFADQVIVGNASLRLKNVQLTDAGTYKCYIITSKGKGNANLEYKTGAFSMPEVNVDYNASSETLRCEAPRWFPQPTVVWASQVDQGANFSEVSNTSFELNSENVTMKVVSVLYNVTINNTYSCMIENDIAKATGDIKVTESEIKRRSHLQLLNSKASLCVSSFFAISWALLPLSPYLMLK
Description: as §1

human CD20 on CHO cells = target: T11, human CD20 on CHO cells (human, UniProt P11836 1-297); assay: as above
T11 construct: whole, on cells
T11 sequence (looked up): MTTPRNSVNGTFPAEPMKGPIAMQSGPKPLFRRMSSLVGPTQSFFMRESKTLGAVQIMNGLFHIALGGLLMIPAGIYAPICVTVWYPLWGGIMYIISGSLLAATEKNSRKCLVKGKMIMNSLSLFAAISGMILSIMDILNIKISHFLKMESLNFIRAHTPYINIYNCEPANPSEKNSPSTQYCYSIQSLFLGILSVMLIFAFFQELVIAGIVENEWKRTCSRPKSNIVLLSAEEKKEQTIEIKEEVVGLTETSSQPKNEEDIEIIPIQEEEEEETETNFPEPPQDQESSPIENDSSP
Description: as §1

human CD27 on CHO cells = target: T12, human CD27 on CHO cells (human, UniProt P26842 20-260); assay: as above
T12 construct: whole, on cells
T12 sequence (P26842 20-260): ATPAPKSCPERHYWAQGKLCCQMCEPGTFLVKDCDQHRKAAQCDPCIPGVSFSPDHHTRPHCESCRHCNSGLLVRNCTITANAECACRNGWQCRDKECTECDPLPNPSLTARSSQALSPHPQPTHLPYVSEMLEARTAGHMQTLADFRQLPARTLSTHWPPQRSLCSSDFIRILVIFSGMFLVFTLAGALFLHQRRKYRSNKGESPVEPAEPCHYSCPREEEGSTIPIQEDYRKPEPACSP
Description: as §1

IFN-γ secretion of human CD8+ T cells co-cultured with CHO-K1-huFcγRIIB cells and OKT3; average EC50, n=12 (human CD137 on cells): 30.6 ng/mL and ~0.21 nM
IL-8 secretion of CD137 reporter cells (GS-H2-huCD137) co-cultured with CHO-K1-huFcγRIIB cells; average EC50, n=6 (human CD137 on cells): 44.4 ng/mL and ~0.31 nM
binding result (human VISTA on CHO cells): no binding
binding result (human TIGIT on CHO cells): no binding
binding result (human CD40 on CHO cells): no binding
binding result (human LAG-3 on CHO cells): no binding
binding result (mouse CD137 on CHO cells): no binding
binding result (human LTBR on CHO cells): no binding
binding result (human BTLA on CHO cells): no binding
binding result (human CD19 on CHO cells): no binding
binding result (human PD-L1 on CHO cells): no binding
binding result (human B7-H4 on CHO cells): no binding
binding result (human CD20 on CHO cells): no binding
binding result (human CD27 on CHO cells): no binding
B1: Clone 3712-IgG1v (IgG1v/kappa) (antibody)
heavy: QVQLVQSGAEVKKPGASVKVSCKASGYTFAGFEMHWVRQAPGQGLEWMGAIDPKTGGTDYNQKFKDRVTMTRDTSISTAYMELSRLRSDDTAVYYCARDLGYFDVWGQGTLVTVSSASTKGPSVFPLAPSSKSTSGGTAALGCLVKDYFPEPVTVSWNSGALTSGVHTFPAVLQSSGLYSLSSVVTVPSSSLGTQTYICNVNHKPSNTKVDKKVEPKSCDKTHTCPPCPAPELLGPSVFLFPPKPKDTLMISRTPEVTCVVVDVEHEDPEVKFNWYVDGVEVHNAKTKPREEQYNSTYRVVSVLTVLHQDWLNGKEYKCKVSNKALPAPIEKTISKAKGQPREPQVYTLPPSREEMTKNQVSLTCLVKGFYPSDIAVEWESNGQPENNYKTTPPVLDSDGSFFLYSKLTVDKSRWQQGNVFSCSVMHEALHNHYTQKSLSLSPGK
light: DIQMTQSPSSLSASVGDRVTITCRASQDIRSNLNWYQQKPGGAVKLLIYYTSRLHSGVPSRFSGSGSGTDYTLTISSLQPEDFATYFCQQSEKLPRTFGGGTKVEIRRTVAAPSVFIFPPSDEQLKSGTASVVCLLNNFYPREAKVQWKVDNALQSGNSQESVTEQDSKDSTYSLSSTLTLSKADYEKHKVYACEVTHQGLSSPVTKSFNRGEC
notes: copies: 2 + 2
